Drawing on patent US20230235013A1 (MABSOLVE, published 2023), this text covers Mean binding response for three molecules.

The labels stand for the following.
B1: anti-CD20 human IgG1 L234Q/L235I/G236R (antibody)
heavy: QVQLQQPGAELVKPGASVKMSCKASGYTFTSYNMHWVKQTPGRGLEWIGAIYPGNGDTSYNQKFKGKATLTADKSSSTAYMQLSSLTSEDSAVYYCARSTYYGGDWYFNVWGAGTTVTVSSASTKGPSVFPLAPSSKSTSGGTAALGCLVKDYFPEPVTVSWNSGALTSGVHTFPAVLQSSGLYSLSSVVTVPSSSLGTQTYICNVNHKPSNTKVDKKVEPKSCDKTHTCPPCPAPEQIRGPSVFLFPPKPKDTLMISRTPEVTCVVVDVSHEDPEVKFNWYVDGVEVHNAKTKPREEQYNSTYRVVSVLTVLHQDWLNGKEYKCKVSNKALPAPIEKTISKAKGQPREPQVYTLPPSRDELTKNQVSLTCLVKGFYPSDIAVEWESNGQPENNYKTTPPVLDSDGSFFLYSKLTVDKSRWQQGNVFSCSVMHEALHNHYTQKSLSLSPGK
light: QIVLSQSPAILSASPGEKVTMTCRASSSVSYIHWFQQKPGSSPKPWIYATSNLASGVPVRFSGSGSGTSYSLTISRVEAEDAATYYCQQWTSNPPTFGGGTKLEIKRTVAAPSVFIFPPSDEQLKSGTASVVCLLNNFYPREAKVQWKVDNALQSGNSQESVTEQDSKDSTYSLSSTLTLSKADYEKHKVYACEVTHQGLSSPVTKSFNRGEC
notes: copies: 2 + 2
B2: anti-CD20 human IgG1 L234Q/L235M/G236R (antibody)
heavy: QVQLQQPGAELVKPGASVKMSCKASGYTFTSYNMHWVKQTPGRGLEWIGAIYPGNGDTSYNQKFKGKATLTADKSSSTAYMQLSSLTSEDSAVYYCARSTYYGGDWYFNVWGAGTTVTVSSASTKGPSVFPLAPSSKSTSGGTAALGCLVKDYFPEPVTVSWNSGALTSGVHTFPAVLQSSGLYSLSSVVTVPSSSLGTQTYICNVNHKPSNTKVDKKVEPKSCDKTHTCPPCPAPEQMRGPSVFLFPPKPKDTLMISRTPEVTCVVVDVSHEDPEVKFNWYVDGVEVHNAKTKPREEQYNSTYRVVSVLTVLHQDWLNGKEYKCKVSNKALPAPIEKTISKAKGQPREPQVYTLPPSRDELTKNQVSLTCLVKGFYPSDIAVEWESNGQPENNYKTTPPVLDSDGSFFLYSKLTVDKSRWQQGNVFSCSVMHEALHNHYTQKSLSLSPGK
light: QIVLSQSPAILSASPGEKVTMTCRASSSVSYIHWFQQKPGSSPKPWIYATSNLASGVPVRFSGSGSGTSYSLTISRVEAEDAATYYCQQWTSNPPTFGGGTKLEIKRTVAAPSVFIFPPSDEQLKSGTASVVCLLNNFYPREAKVQWKVDNALQSGNSQESVTEQDSKDSTYSLSSTLTLSKADYEKHKVYACEVTHQGLSSPVTKSFNRGEC
notes: also called 1-115; copies: 2 + 2
B3: anti-CD20 human IgG1 L234Q/L235K/G236R (antibody)
heavy: QVQLQQPGAELVKPGASVKMSCKASGYTFTSYNMHWVKQTPGRGLEWIGAIYPGNGDTSYNQKFKGKATLTADKSSSTAYMQLSSLTSEDSAVYYCARSTYYGGDWYFNVWGAGTTVTVSSASTKGPSVFPLAPSSKSTSGGTAALGCLVKDYFPEPVTVSWNSGALTSGVHTFPAVLQSSGLYSLSSVVTVPSSSLGTQTYICNVNHKPSNTKVDKKVEPKSCDKTHTCPPCPAPEQKRGPSVFLFPPKPKDTLMISRTPEVTCVVVDVSHEDPEVKFNWYVDGVEVHNAKTKPREEQYNSTYRVVSVLTVLHQDWLNGKEYKCKVSNKALPAPIEKTISKAKGQPREPQVYTLPPSRDELTKNQVSLTCLVKGFYPSDIAVEWESNGQPENNYKTTPPVLDSDGSFFLYSKLTVDKSRWQQGNVFSCSVMHEALHNHYTQKSLSLSPGK
light: QIVLSQSPAILSASPGEKVTMTCRASSSVSYIHWFQQKPGSSPKPWIYATSNLASGVPVRFSGSGSGTSYSLTISRVEAEDAATYYCQQWTSNPPTFGGGTKLEIKRTVAAPSVFIFPPSDEQLKSGTASVVCLLNNFYPREAKVQWKVDNALQSGNSQESVTEQDSKDSTYSLSSTLTLSKADYEKHKVYACEVTHQGLSSPVTKSFNRGEC
notes: copies: 2 + 2

In the test the target is T1, Histidine-tagged recombinant human FcγRI (CD64) (human, UniProt P12314 16-288).
T1 construct: bought; also called Sino Biological Cat. No. 12056-H08H
The test is described as follows: SPR, culture supernatant, captured His-FcγRI.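 Further: biacore T200 SPR at 25 °C, anti-His capture, supernatants of HEK293 cells expressing IgG1 Fc variants injected 1 min, reference-subtracted response read 55 s after injection start.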
With B1, the Mean binding response came out at 34.7 RU. With B2, the Mean binding response is 38.4 RU. Under B3 stands 26.9 RU.
